{"source": "patent US20170283834A1", "about": "“Processes for Producing A Fermentation Product Using A Fermenting Organism” (Novozymes A/S, priority 2014, published 2017)", "molecules": {"B1": {"name": "Penicillium oxalicum glucoamylase: wild type Penicillium oxalicum glucoamylase disclosed in SEQ ID NO: 9 (protein, listed as Penicillium oxalicum)", "chain": "MRLTLLSGVAGVLCAGQLTAARPDPKGGNLTPFIHKEGERSLQGILDNLGGRGKKTPGTAAGLFIASPNTENPNYYYTWTRDSALTAKCLIDLFEDSRAKFPIDRKYLETGIRDYVSSQAILQSVSNPSGTLKDGSGLGEPKFEIDLNPFSGAWGRPQRDGPALRATAMITYANYLISHGQKSDVSQVMWPIIANDLAYVGQYWNNTGFDLWEEVDGSSFFTIAVQHRALVEGSQLAKKLGKSCDACDSQPPQILCFLQSFWNGKYITSNINTQASRSGIDLDSVLGSIHTFDPEAACDDATFQPCSARALANHKVYVDSFRSIYKINAGLAEGSAANVGRYPEDVYQGGNPWYLATLGASELLYDALYQWDRLGKLEVSETSLSFFKDFDATVKIGSYSRNSKTYKKLTQSIKSYADGFIQLVQQYTPSNGSLAEQYDRNTAAPLSANDLTWSFASFLTATQRRDAVVPPSWGAKSANKVPTTCSASPVVGTYKAPTATFSSKTKCVPAKDIVPITFYLIENTYYGENVFMSGNITALGNWDAKKGFPLTANLYTQDQNLWFASVEFIPAGTPFEYKYYKVEPNGDITWEKGPNRVFVAPTGCPVQPHSNDVWQF"}}, "format_in_all_cases": "biochemical", "key": {"[1]": {"test_system": "aspergillopepsin I", "assay": "PE001 protease stability, SDS-PAGE after protease treatment", "protocol": "40 μl enzyme solutions (1 mg/ml) in 50 mM sodium acetate buffer, pH 4.5, were mixed with 1/10 volume of 1 mg/ml protease solutions such as aspergillopepsin I described in Biochem J. 1975 April; 147(1):45-53, or the commercially available product from Sigma and aorsin described in Biochemical journal [0264-6021] Ichishima yr: 2003 vol:371 iss:Pt 2 pg:541 and incubated at 4 or 32° C. overnight. As a control experiment, H2O was added to the sample instead of proteases. The samples were loaded on SDS-PAGE to see if the glucoamylases are cleaved by proteases."}, "[2]": {"assay": "Penicillium oxalicum glucoamylase: pH stability", "protocol": "(§1) Substrate: 1% soluble starch (Sigma S-9765) in deionized water\n(§2) 20 microL soluble starch and 50 microL acetate buffer at pH 5.3 were mixed. 30 microL enzyme solution (50 micro g enzyme protein/ml) was added to a final volume of 100 microL followed by incubation at 37° C. for 15 min.\n(§3) The glucose concentration was determined by Wako kits.\n(§4) pH optimum. To assess the pH optimum of the Penicillium oxalicum glucoamylase the Reaction condition assay described above was performed at pH 2.0, 3.0, 3.5, 4.0, 4.5, 5.0, 6.0 7.0, 8.0, 9.0, 10.0 and 11.0. Instead of using the acetate buffer described in the Reaction condition assay the following buffer was used 100 mM Succinic acid, HEPES, CHES, CAPSO, 1 mM CaCl2, 150 mM KCl, 0.01% Triton X-100, pH adjusted to 2.0, 3.0, 3.5, 4.0, 4.5, 5.0, 6.0 7.0, 8.0, 9.0, 10.0 or 11.0 with HCl or NaOH.\nTo assess the […] of the Penicillium oxalicum glucoamylase the Reaction condition assay was modifed in that the enzyme solution (50 micro g/mL) was preincubated for 20 hours in buffers with pH 2.0, 3.0, 3.5, 4.0, 4.5, 5.0, 6.0 7.0, 8.0, 9.0, 10.0 and 11.0 using the buffers described under pH optimum. After preincubation, 20 microL soluble starch to a final volume of 100 microL was added to the solution and the assay was performed as described above."}, "[3]": {"assay": "Penicillium oxalicum glucoamylase: temperature optimum (Reaction condition assay)", "conditions": "for Relative activity (%): Temperature optimum", "protocol": "as §1\n(§5) Reaction buffer: 0.1 M Acetate buffer at pH 5.3 Glucose concentration determination kit: Wako glucose assay kit (LabAssay glucose, WAKO, Cat#298-65701).\nTo assess the temperature optimum of the Penicillium oxalicum glucoamylase the “Reaction condition”-assay described above was performed at 20, 30, 40, 50, 60, 70, 80, 85, 90 and 95° C."}, "[4]": {"assay": "Penicillium oxalicum glucoamylase: pH optimum", "conditions": "for Relative activity (%): pH optimum", "protocol": "as §1, §2, §3, §4"}, "[5]": {"assay": "Penicillium oxalicum glucoamylase: heat stability", "conditions": "for Relative activity (%): Heat stability", "protocol": "as §1, §5, §2, §3\nTo assess the heat stability of the Penicillium oxalicum glucoamylase the Reaction condition assay was modifed in that the enzyme solution and acetate buffer was preincubated for 15 min at 20, 30, 40, 50, 60, 70, 75, 80, 85, 90 and 95° C. Following the incubation 20 microL of starch was added to the solution and the assay was performed as described above."}, "[6]": {"assay": "Glucoamylase activity (AGU) of variant compared to parent", "conditions": "37° C., pH 4.3, maltose 100 mM", "protocol": "The Novo Glucoamylase Unit (AGU) is defined as the amount of enzyme, which hydrolyzes 1 micromole maltose per minute under the standard conditions 37° C., pH 4.3, substrate: maltose 23.2 mM, buffer: acetate 0.1 M, reaction time 5 minutes.\nAn autoanalyzer system may be used. Mutarotase is added to the glucose dehydrogenase reagent so that any alpha-D-glucose present is turned into beta-D-glucose. Glucose dehydrogenase reacts specifically with beta-D-glucose in the reaction mentioned above, forming NADH which is determined using a photometer at 340 nm as a measure of the original glucose concentration.\nThe glucoamylase activity measures as AGU as described above was checked for the purified enzymes of the wild type Penicillium oxalicum and the variant glucoamylase.\nThe Glucoamylase Unit (AGU) was defined as the amount of enzyme, which hydrolyzes 1 micromole maltose per minute under the standard conditions (37° C., pH 4.3, substrate: maltose 100 mM, buffer: acetate 0.1 M, reaction time 6 minutes)."}, "[7]": {"conditions": "aspergillopepsin I, incubation 32° C. overnight"}}, "data": [{"molecule": "B1", "values": [{"measurement": "intact glucoamylase (ca. 70 kDa)", "setting": "[1]; aspergillopepsin I, incubation 4° C. overnight", "result": 100, "unit": "%"}, {"measurement": "cleaved glucoamylase (ca. 60 kDa)", "setting": "[1]; [7]", "result": 10, "unit": "%"}, {"measurement": "intact glucoamylase (ca. 70 kDa)", "setting": "[1]; [7]", "result": 90, "unit": "%"}, {"measurement": "SDS-PAGE result after protease treatment", "setting": "[1]; proteases (aspergillopepsin I, aorsin)", "result": "degraded by proteases"}, {"measurement": "Relative activity (%)", "setting": "[2]; preincubated 20 hours at pH 2.0", "result": 17.4, "unit": "%"}, {"measurement": "Relative activity (%)", "setting": "[2]; preincubated 20 hours at pH 3.0", "result": 98.0, "unit": "%"}, {"measurement": "Relative activity (%)", "setting": "[2]; preincubated 20 hours at pH 3.5", "result": 98.0, "unit": "%"}, {"measurement": "Relative activity (%)", "setting": "[2]; preincubated 20 hours at pH 4.0", "result": 103.2, "unit": "%"}, {"measurement": "Relative activity (%)", "setting": "[2]; preincubated 20 hours at pH 4.5", "result": 100.0, "unit": "%"}, {"measurement": "Relative activity (%)", "setting": "[2]; preincubated 20 hours at pH 5.0", "result": 93.4, "unit": "%"}, {"measurement": "Relative activity (%)", "setting": "[2]; preincubated 20 hours at pH 6.0", "result": 71.2, "unit": "%"}, {"measurement": "Relative activity (%)", "setting": "[2]; preincubated 20 hours at pH 7.0", "result": 90.7, "unit": "%"}, {"measurement": "Relative activity (%)", "setting": "[2]; preincubated 20 hours at pH 8.0", "result": 58.7, "unit": "%"}, {"measurement": "Relative activity (%)", "setting": "[2]; preincubated 20 hours at pH 9.0", "result": 17.4, "unit": "%"}, {"measurement": "Relative activity (%)", "setting": "[2]; preincubated 20 hours at pH 10.0", "result": 17.0, "unit": "%"}, {"measurement": "Relative activity (%)", "setting": "[2]; preincubated 20 hours at pH 11.0", "result": 17.2, "unit": "%"}, {"measurement": "activity maintained at 95° C.", "setting": "[3]; 95° C.", "result": "more than 80%"}, {"measurement": "Relative activity (%)", "setting": "[3]; 20° C.", "result": 63.6, "unit": "%"}, {"measurement": "Relative activity (%)", "setting": "[3]; 30° C.", "result": 71.7, "unit": "%"}, {"measurement": "Relative activity (%)", "setting": "[3]; 40° C.", "result": 86.4, "unit": "%"}, {"measurement": "Relative activity (%)", "setting": "[3]; 50° C.", "result": 99.4, "unit": "%"}, {"measurement": "Relative activity (%)", "setting": "[3]; 60° C.", "result": 94.6, "unit": "%"}, {"measurement": "Relative activity (%)", "setting": "[3]; 70° C.", "result": 100.0, "unit": "%"}, {"measurement": "Relative activity (%)", "setting": "[3]; 80° C.", "result": 92.9, "unit": "%"}, {"measurement": "Relative activity (%)", "setting": "[3]; 85° C.", "result": 92.5, "unit": "%"}, {"measurement": "Relative activity (%)", "setting": "[3]; 90° C.", "result": 82.7, "unit": "%"}, {"measurement": "Relative activity (%)", "setting": "[3]; 95° C.", "result": 82.8, "unit": "%"}, {"measurement": "pH of highest activity", "setting": "[4]; at the given conditions", "result": 5.0}, {"measurement": "activity maintained from pH 2 to 7", "setting": "[4]; pH 2 to 7", "result": "more than 50%"}, {"measurement": "Relative activity (%)", "setting": "[4]; pH 2.0", "result": 71.4, "unit": "%"}, {"measurement": "Relative activity (%)", "setting": "[4]; pH 3.0", "result": 78.6, "unit": "%"}, {"measurement": "Relative activity (%)", "setting": "[4]; pH 3.5", "result": 77.0, "unit": "%"}, {"measurement": "Relative activity (%)", "setting": "[4]; pH 4.0", "result": 91.2, "unit": "%"}, {"measurement": "Relative activity (%)", "setting": "[4]; pH 4.5", "result": 84.2, "unit": "%"}, {"measurement": "Relative activity (%)", "setting": "[4]; pH 5.0", "result": 100.0, "unit": "%"}, {"measurement": "Relative activity (%)", "setting": "[4]; pH 6.0", "result": 55.5, "unit": "%"}, {"measurement": "Relative activity (%)", "setting": "[4]; pH 7.0", "result": 66.7, "unit": "%"}, {"measurement": "Relative activity (%)", "setting": "[4]; pH 8.0", "result": 30.9, "unit": "%"}, {"measurement": "Relative activity (%)", "setting": "[4]; pH 9.0", "result": 17.8, "unit": "%"}, {"measurement": "Relative activity (%)", "setting": "[4]; pH 10.0", "result": 15.9, "unit": "%"}, {"measurement": "Relative activity (%)", "setting": "[4]; pH 11.0", "result": 16.1, "unit": "%"}, {"measurement": "Relative activity (%)", "setting": "[5]; preincubated 15 min at 20° C.", "result": 91.0, "unit": "%"}, {"measurement": "Relative activity (%)", "setting": "[5]; preincubated 15 min at 30° C.", "result": 92.9, "unit": "%"}, {"measurement": "Relative activity (%)", "setting": "[5]; preincubated 15 min at 40° C.", "result": 88.1, "unit": "%"}, {"measurement": "Relative activity (%)", "setting": "[5]; preincubated 15 min at 50° C.", "result": 100.0, "unit": "%"}, {"measurement": "Relative activity (%)", "setting": "[5]; preincubated 15 min at 60° C.", "result": 96.9, "unit": "%"}, {"measurement": "Relative activity (%)", "setting": "[5]; preincubated 15 min at 70° C.", "result": 86.0, "unit": "%"}, {"measurement": "Relative activity (%)", "setting": "[5]; preincubated 15 min at 80° C.", "result": 34.8, "unit": "%"}, {"measurement": "Relative activity (%)", "setting": "[5]; preincubated 15 min at 85° C.", "result": 36.0, "unit": "%"}, {"measurement": "Relative activity (%)", "setting": "[5]; preincubated 15 min at 90° C.", "result": 34.2, "unit": "%"}, {"measurement": "Relative activity (%)", "setting": "[5]; preincubated 15 min at 95° C.", "result": 34.8, "unit": "%"}, {"measurement": "activity maintained after preincubation", "setting": "[5]; up to 70° C., preincubation for 15 min", "result": "more than 80%"}, {"measurement": "Relative specific activity AGU/mg", "setting": "[6]", "result": 100, "unit": "%"}]}]}
